Laboratory results: US5851983A, “Elastase inhibitory polypeptide and process for production thereof by recombinant gene technology” (Teijin Limited, priority 1987, dated 1998)

Columns and labels:
[1] = target: T1, polymorphonuclear leucocyte elastase from human sputum (Homo sapiens, UniProt P08246); assay: Treatment with polymorphonuclear leucocyte elastase from human sputum (Examples 27, 30); format: in vitro ADME; details: 37° C.
T1 construct: Polymorphonuclear leukocyte elastase from human sputum (EPC Co; Funakoshi Yakuhin); purchased EPC Co. (via Funakoshi Yakuhin); host or cells: human sputum
T1 sequence (P08246 30-267): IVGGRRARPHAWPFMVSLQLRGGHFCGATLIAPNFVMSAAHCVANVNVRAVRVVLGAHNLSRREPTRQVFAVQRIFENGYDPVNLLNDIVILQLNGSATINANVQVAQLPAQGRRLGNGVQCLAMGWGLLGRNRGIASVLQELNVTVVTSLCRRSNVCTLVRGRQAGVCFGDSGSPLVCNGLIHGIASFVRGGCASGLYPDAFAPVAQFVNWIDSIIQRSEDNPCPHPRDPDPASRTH
Description: Polymorphonuclear leucocyte elastase from human sputum (EPC, Funakoshi Yakuhin) and SLPI were separately dissolved in a buffer (0.1M HEPES, 0.1M NaCl, 0.1% PEG 6000, pH 7.5) and the elastase solution was added to the SLPI solution, and the mixture was incubated at 37° C. Samples were taken as time elapsed, and to each sample were added Tris-HCl buffer (pH 6.8), SDS, 2-mercaptolethanol, glycerol, and Coomassie Brilliant Blue to final concentrations of 50 mM, 4 w/v %, 2 v/v %, 12 v/v % and 0.01 w/v % respectively. The mixture was subjected to SDS-polyacrylamide gel electrophoresis using Tricine (Sigma) as a polar buffer (Schagger, H., Anal. Biochem. 166, 368, 1987). After the electrophoresis, the gel was stained with Coomassie Brilliant Blue G-250, and decoloured with 50% (v/v) methanol/10% (v/v) acetic acid.
(1) A result of a test, wherein elastase was added to 100 μM SLPI to an elastase final concentration of 200 μM, and the mixture was incubated at 37° C. up to 192 hours taking samples as time elapsed, is shown in FIG. 20. […]
(3) Next, polypeptides thus generated were electrically transferred to a membrane (Immobilon-p^SQ Millipore) using a Milli Blot-SDE apparatus (Millipore). […] After drying, relevant bands were cut out, and the peptide was cleaved from the N-terminal using an Applied Biosystems Protein-Sequencer (Applied Biosystems; 477A), and after PTH-conversion, the resulting amino acid derivatives were analyzed by a PTH-Amino acid analyzer (Applied Biosystems, 120A) to determine the N-terminal amino acid sequence.
According to the same procedure as described in Example 27, (Asn^55 -Ala^107) SLPI (final concentration 100 μM) was treated with elastase (final concentration 200 μM) at 37° C. for 48 hours. The sample was separated by SDS-PAGE, and electrically transferred to a filter as described in Example 27, a band corresponding to a molecular weight of about 5,500 was cut out, and an N-terminal amino acid sequence was analyzed.

[2] = target: T1, polymorphonuclear leucocyte elastase from human sputum; assay: Simultaneous treatment with healthy human saliva and elastase (Examples 28, 29); format: in vitro ADME; details: 37° C.
Description: (1) Healthy human saliva was ultra-filtered through a 0.22 μm filter (Millex GS, Millipore), and to the filtered saliva were added SLPI and polymorphonuclear leucocyte elastase from human sputum (EPC, Funakoshi Yakuhin) to a final concentration of 50 μM respectively. The mixture was incubated at 37° C., samples were taken as time elapsed, and analyzed by SDS-PAGE as described in Example 27.
(2) Next, the band J was transferred to a membrane as described in Example 27, and N-terminal amino acid sequence was analyzed.
(1) According to the same procedure as described in Example 28, to healthy human saliva were dissolved SLPI and polymorphonuclear leucocyte elastase from human sputum to final concentrations of 50 μM and 100 μM respectively, and the mixture was incubated at 37° C. Samples were taken as time elapsed, and analyzed by SDS-PAGE.
(2) Next, N-terminal amino acid sequence of the band M was analyzed as described in Example 27.

Human plasma thrombin = target: T2, Human plasma thrombin (Homo sapiens, UniProt P00734); assay: Assay for thrombin inhibitory activity (Example 25); format: biochemical; details: final concentration up to ×10^-5 M; enzyme 3 × 10^-9 M
T2 construct: (5) Human plasma thrombin (Kabi, Daiichi Kagaku Yakuhin); purchased Kabi (via Daiichi Kagaku Yakuhin); host or cells: human plasma
Description: F. Human plasma thrombin (Sigma)
Buffer: Buffer solution for each enzyme is as follow. Thrombin and FXa: 50 mM Tris-HCl, 7.5 mM EDTA-2Na, 175 mM NaCl (pH 8.4) […]
Substrate solution: for the enzymes F, G, H and I, the following substrate f, g, h or i, respectively, was dissolved to a final concentration shown in Table 14.
f. H.D-Phe-Pip-Arg-pNA (Kabi Vitrum)
To wells of an ELISA 96-well microtiter plate, were added a solution of (Arg^59 -Ala^107) SLPI obtained in Example 23 and then the enzyme solution, and the mixture was incubated at 37° C. for 10 minutes. Next, the substrate solution was added to develop the color, whose absorption was then measured at 405 nm. As a control, SLPI was used.

elastase and trypsin = details: R. C. Thompson et al., Proc. Natl. Acad. Sci. USA, 83, 6692; cited from earlier work

inhibitory activity to thrombin (Human plasma thrombin): did not exhibit inhibitory activity
B1: SLPI: Human secretory leukoprotease inhibitor; recombinant SLPI of Reference Example 1 used as control (protein)
chain: SGKSFKAGVCPPKKSAQCLRYKKPECQSDWQCPGKKRCCPDTCGIKCLDPVDTPNPTRRKPGKCPVTYGQCLMLNPPNFCEMDGQCKRDLKCCMGMCGKSCVSPVKA
SDS-PAGE band of SLPI on treatment with elastase ([1]; 50 μM SLPI, not less than 100 μM elastase, one hour): disappeared significantly | SDS-PAGE band of SLPI on treatment with elastase ([1]; 100 μM SLPI, 200 μM elastase): rapidly disappeared after 45 minute incubation | selective cleavage sites with elastase from human sputum ([1]; N-terminal sequencing of SDS-PAGE bands): between Ser^15 -Ala^16, and Thr^57 -Arg^58 | SDS-PAGE bands on simultaneous treatment with healthy human saliva and elastase ([2]; 50 μM polypeptide, elastase 50 μM (Example 28) or 100 μM (Example 29)): after 96 hours, a new band J with a molecular weight of about 5,500 appeared | cleavage site on simultaneous treatment with healthy human saliva and elastase ([2]; N-terminal sequencing of SDS-PAGE band): cleaved at the site between Thr^57 -Arg^58 | Ki(E) compared with Ki(T) (elastase and trypsin): Ki(E) is roughly equivalent to Ki(T)
